Measurements reported in the supplement of paper PMC12764529.

Assay: folding stability dG unfold (combined trypsin and chymotrypsin); higher = more stable
Description: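 Folding stability of de novo designed mini-proteins (<80 aa, no Cys; designed by TrROS, TrMRF, ProteinMPNN and the joint model) was measured by cDNA display proteolysis with trypsin and chymotrypsin. Each protease was used at 11 concentrations in a threefold dilution series plus a no-protease condition. K50 was inferred by Bayesian fitting of sequencing counts, and dG unfold was derived against a sequence-predicted unfolded-state K50 (Tsuboyama et al. method). Sequences shown include variable-length N-terminal GS-type padding (SAGGSAGG...) inside a display construct carrying a PA tag. Rows were kept only if the AF2 dimer inter-PAE was >15, to exclude likely homo-oligomers.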

Sequence	folding stability dG unfold
SAGGSAGGYEIPIKIKITNPDNNKPVTFEIPIRYDKDNGRPPSPEQIARELAERSPGFKITEIESAGGSAGG [r6_821_TrROS]	< -1 kcal/mol
SAGGSAGGSAGAAEFELSGTVRIGDVPVKVTPRLYVPEDGGYRAEPRVELYFREDTPGYRSAGGSAGGSAGG [r11_121_TrMRF]	< -1 kcal/mol
SAGGSAGGSAGTVTEKTSIPDPNSDNSLTVTKTPNSITMTNPKTGDVIISNNSTVTKIKKSAGGSAGGSAGG [r17_544_JUSTAS]	< -1 kcal/mol
SSPVVEAIEAEAAARGLPVEVSVSPDENGNPVVPVRVLTPEVLAAGEPRLAERVRPVTTDGRTVTVRVVASA [r9_489_JUSTAS]	< -1 kcal/mol
SAGGDWLDNFPPGWKIKLERPNGKPKTYTIPPNSSPDDLKKLKLPNGYKLKIDEVTPNGQMTFRLPPSAGGS [r16_103_TrROS]	< -1 kcal/mol
SAGGSARKITIDVQPHPNGEFPINVKIRGPNGEPKKERPFNFDSPQAAKNKLKDFADKNGYEVEIWSAGGSA [r15_242_TrROS]	< -1 kcal/mol
SAGGSAGGSAGTLDELKNAPPGEERTVRVDFQIYEMRPDPNGKPEMEPVSPMRMEITFKPSAGGSAGGSAGG [r11_36_TrROS]	< -1 kcal/mol
SAGGSAGGMSLIVKSEEEAREILKKLGWKVKKLNITKLKDESGTVKIPVEIEPVPKGKLSEELISAGGSAGG [r6_981_JUSTAS]	< -1 kcal/mol
SAGGSAGGSAGGSMITTEEFTDKEEAVEKAKKTPGVEKVEVKTTPSDKYVVIIYKPPLKSAGGSAGGSAGGS [r4_1_JUSTAS]	< -1 kcal/mol
SAGGSAGGSPKPMKLRFRNPDNGMPFEVNVDKIDPDGQLRVEIEQPNGKTRKIDNIDNVEIEKSAGGSAGGS [r12_118_TrROS]	< -1 kcal/mol
SAGGSAGGSAGLLPPGARVRLTLRAPGEPEELEFTIPASVPSVEELIERHPPVLAVEVVGSAGGSAGGSAGG [r11_157_JUSTAS]	< -1 kcal/mol
SAGGTIKDLLRELPGFDSVEVDEDSGVIYVRNPDRYYKIEIPVQKQPDDDGKDRPITPVKIEPYPPNSAGGS [r16_65_TrROS]	< -1 kcal/mol
SAGGSAGGAVRVDDSEIGPDRAAPLPGNRSLEVRPDSVTVTTTDPSTNTPTTTTLPYSEVERLLSAGGSAGG [r6_942_JUSTAS]	< -1 kcal/mol
SAGGSAGGSSPPDATIPREEAEKYVKEKVREENLKAGKPLKKVKKLIVKEDPNSDNVKVTVIESAGGSAGGS [r12_583_JUSTAS]	< -1 kcal/mol
SAGGSAGGSAGGSPELVPVSTEVVELETESVLELEESKVEVKERLEIVVKRLTKEGLGLESAGGSAGGSAGG [r7_485_JUSTAS]	< -1 kcal/mol
SAGGSAGGSAGGPEWKEVPFTLRMPDGEPMDAKVYIDPEGPLEIENDDKWHTFPADQLKSAGGSAGGSAGGS [r10_649_TrROS]	< -1 kcal/mol
SAGGSAGGSAGGSTKSINFKNPSNIRDALREAQDEGVKPVVIYFPDGKTRKIPPGDPITSAGGSAGGSAGGS [r4_260_TrROS]	< -1 kcal/mol
SAGGSAGGSAGGGSPNVVVEKKLTVNLPKDVKLDFPPEYEVTVTKGKNTYKITEKIIVNKSAGGSAGGSAGG [r7_584_JUSTAS]	< -1 kcal/mol
SAGGSAGGSTAEEVAEALGFEEAEVTPTGLVEVRKLPNGGYARAYRYTLKLRSPDGTERTFPISAGGSAGGS [r12_221_TrMRF]	< -1 kcal/mol

Sequence	folding stability dG unfold
SAGGSAGGSAGGEEERMWMFSVRVPDKPVMFPFDDLEKLAEEKGVPVKIEWARMPADDLKSAGGSAGGSAGG [r7_185_TrROS]	< -1 kcal/mol
SAGGSAGGSAGGMIYPPDEVLEKTTKVEVELPNETGKTITKTIVTKTYAESGKSTIETAGSAGGSAGGSAGG [r17_266_JUSTAS]	< -1 kcal/mol
SAGGSAPIEIEVRLGDKPRTIDIEPNPEGMYPIKVYNDGPGKPKEHMIPPNNLDELKNLDPDRIEISAGGSA [r15_629_TrROS]	< -1 kcal/mol
SAGGSAGGSAGGPTVKVKKVELAPETGYAVVHFEVELEGEPKVVEGELVLPLPPPLDAPSAGGSAGGSAGGS [r10_541_TrMRF]	< -1 kcal/mol
SAGGSAGGSAADLAKLEKVEVEEVPTDPNAEYRVTAELPTPGEPVEFTRRRLPDGSWEYSGSAGGSAGGSAG [r3_234_JUSTAS]	< -1 kcal/mol
SAGGSAGGSAGKIEVETNPENNYMRVKITNPGNGKKIKIPVPNGNPSDARDKAKELILEFSAGGSAGGSAGG [r17_386_TrROS]	< -1 kcal/mol
SAGGSAGGSSLAEEIARLLGLESETLSESVSPTPRSLTLTRFKPPEDGELIVFYDGEVPTILPSAGGSAGGS [r12_279_JUSTAS]	< -1 kcal/mol
SAGGSAGGSAGGSGLKELREEAAKGKKFIVRTTVPLKEYEFDLKDLDKFEDHDIIVEPRSAGGSAGGSAGGS [r4_157_TrMRF]	< -1 kcal/mol
SAGGSAGGMEKADKLAAALVEKGIPFHVKKVEVFEVRIPPADKELGEVVLPAVKIGLDDKVLLASAGGSAGG [r6_686_TrMRF]	< -1 kcal/mol
SAGGIKPGQQWRIRSPNGPIPIRVRGGQIKIRNNDNGKKRTYPVPGDTIEEIVDDLRDHPGMEIEPLSAGGS [r16_583_TrROS]	< -1 kcal/mol
SAGGMEEKVINIPLSNGEEATITITIENEPGKNKAIVPINSKSVPAEELAKKLKKELPESITDLTVVKSAGG [r13_404_JUSTAS]	< -1 kcal/mol
SAGGSAKPYIVIKGEYENPGKKHDMDIQIPPEDLDNPERARELAEEIKDEMRQQGAPVKDVEIEPVSAGGSA [r15_781_TrROS]	< -1 kcal/mol
SAGGSAGGSAGGSPPIRIRFPNNGKTIPIDGPDDLKDYLRDNGLPIDPDDLDKIDEVEWSAGGSAGGSAGGS [r4_104_TrROS]	< -1 kcal/mol
SAGGDIEVEPTDNMPQVEIRDPEGKERKIVMPPNPNGQYNIQVHNPDDGKKKTFPVRSVDDALEWLKSAGGS [r8_230_TrROS]	< -1 kcal/mol
SAGGSAGGSYPFRIKIVNPNGKKIIPIPYQFDPEDGKLEPFTEDQLDEIAKQLGPNFKKIEIYSAGGSAGGS [r12_514_TrROS]	< -1 kcal/mol
SAGGSAGGSPIPVPLVIFFPDSETTEIVPATPELFEALAAELAALGPVVRRGPERTMTITVPRSAGGSAGGS [r12_292_JUSTAS]	< -1 kcal/mol
SAGGSAGGSAGMKTFTAPSGEKLVEVTIKTKNKEISVTVPPEEGGEAVAKKYGVSKKDIASAGGSAGGSAGG [r11_1039_JUSTAS]	< -1 kcal/mol
SAGGKELVEKLLAEGGVKPVKIETKEGKPKIEVLAPKPELGKKLVEKLKKDPRIEEVNIKPYKPEELSAGGS [r16_671_TrMRF]	< -1 kcal/mol
SAGGSAGGSFEVHYDPEPNNLTIRMEFPGGRRTYRIPSADDVKDWFEDMGMPFKPMEITKIEPSAGGSAGGS [r12_834_TrROS]	< -1 kcal/mol

Sequence	folding stability dG unfold
SAGGSAGGSAGGMLPIPKIEVKPGDEEEAKKTKEKLKKELEEKLGKKAKNLKVDFNPSLSAGGSAGGSAGGS [r10_1216_JUSTAS]	< -1 kcal/mol
SAGGSAGGSTAGEAESEEISVEPLPDGPYLVTRSVVRTLPDGSSEVTETVPSIATDPAEIAEASAGGSAGGS [r12_386_JUSTAS]	< -1 kcal/mol
SGSMVVVPESDLEAAIATARALVAAGEDTLLFFSPEAREAVQRAVPEVRVEPVPGVPPTPPRPESVARLRSA [r9_639_JUSTAS]	< -1 kcal/mol
SAGGPKIDVEKEKSPERGRRKIEIRWPGSGQEMDIFLPDDDPDKIAKALQNAPFGSFHEAIREALRDSAGGS [r8_484_TrROS]	< -1 kcal/mol
SAGGSAGGSAGGSSKLVTITRGNSKTLLTLKPDEPVLLPGSDSSVSVNEGSAVNISGNKLSAGGSAGGSAGG [r7_853_JUSTAS]	< -1 kcal/mol
SMITPEDLEALKAAGVELVSRDPNNRVTLFDPATNTPIELEVEEVPPPPPVTFPGNGPSVEERRAWLERRSA [r9_649_JUSTAS]	< -1 kcal/mol
SRFRISVQHDGKPIDRAEVQDAIHDLMQESGRPITFEELADELAERPNYSVSIERWNPPGKPKGTRTIRVSA [r9_1045_TrROS]	< -1 kcal/mol
SAGGSAGGSAGNVITFPDGYYIRVTGPGPREIPIPPENAEDFVDEISKLPGIQDIEIQPRSAGGSAGGSAGG [r11_587_TrROS]	< -1 kcal/mol
SGINTEYTVTSVGPAGTPVTTELKTKIGNKEYSLTRTYQDPSGSVRLVNWKITSSPSGSSTISETVSPLPSA [r9_255_JUSTAS]	< -1 kcal/mol
SAGGGMRPVPVSEIIAKLKEEGYTVSKVSVYRPGSGEKLGTYDPNTPVVIPADEPDAVIEPVVEPKGSAGGS [r8_243_JUSTAS]	< -1 kcal/mol
SAGGSAGGSGMAVVEVDITGPTSTSEEEAQARAEALAAEIAAASDSADVRATVRFSRVPPELPSAGGSAGGS [r12_522_JUSTAS]	< -1 kcal/mol
SAGGSAGGSAGGMKPYRIGNGAWLYVNPDDSVRIYNPGNGQKRTIPIGKPQPIRLPKNAISAGGSAGGSAGG [r7_299_TrROS]	< -1 kcal/mol
SAGGSAGGSSDIKIYEIPEKGEIVVERPPSEKVTIDINNHPLEGSLTPLPGNKYLWKVKIKSPSAGGSAGGS [r12_970_JUSTAS]	< -1 kcal/mol
SAGGSAGGKPIVFKGKHDGKEMIFPIELNPENGQIKITPMNGKELRIPPNKPPKIVEVDPNDFESAGGSAGG [r6_174_TrROS]	< -1 kcal/mol
SAALGPEKAEELAEALARELAEKAGVEKVEAKVEPLPDERWVAEIYFPPVGKKARVVFEKDKPRLVEVGSAG [r14_925_TrMRF]	< -1 kcal/mol
SAGGMVVITTDDPDDLERLAEAVEELKRALAEAGATEPGVKVDVVIEKRPTPDGTLRYVAPVFVGLPSAGGS [r16_591_TrMRF]	< -1 kcal/mol
SAGGSAGGSAGWKISVRMPDNGKPRRVPIEIPFDADDPQYFKEIANDLANDGIREVEIYPSAGGSAGGSAGG [r11_196_TrROS]	< -1 kcal/mol
SAGGSAGGSPIRRALRYVREQFPPGQPYRVRARNPGNGKEREIEVPWNDPEELDNTKDIEVEPYSAGGSAGG [r6_402_TrROS]	< -1 kcal/mol
SAGGSAGGSAEEILELFPDLELLEVDPVEPRALVRRSDDSWLRVNLATGEAEEVGPGEAERESAGGSAGGSA [r18_381_TrMRF]	< -1 kcal/mol
